Test results as given in paper PMC6602930.

Experiments:
[1] = biological target: Alexa 488-labelled, crosslinked recombinant histone octamer (H2A, H2B T112C-Alexa 488, H3 C110A, H4 T71C) (UniProt P06897); assay: other fluorescence titration; 5 nM Alexa 488-labelled octamer titrated with NP (pentamer concentration); 150 mM NaCl, 1 mM DTT, 0.1 mg/ml BSA, 20 mM Tris-HCl pH 7.5; ligand-depleted model with two pentamers per octamer; apparent
[2] = biological target: Crosslinked histone octamer (dimethyl suberimidate) (not stated (chicken erythrocyte or recombinant histones)); assay: native gel or EMSA; 8% native PAGE run from the positive to the negative electrode; fixed histones (10 µM H2A-H2B or H3-H4 dimers, 2.5 µM octamer) with increasing tail domain, 150 mM NaCl, 20 mM Tris-HCl pH 7.6, RT, 1 h
[3] = biological target: Histone H2A-H2B dimer, natural source (chicken erythrocyte chromatin) (chicken) (UniProt P02263); assay: as above
[4] = biological target: Recombinant nucleoplasmin, full length (rNP) (X. laevis) (UniProt P05221); assay: native gel or EMSA; NP alone on 4-16% native PAGE (Figs 2B and S3); pentamers to decamer

## Egg nucleoplasmin (eNP) from X. laevis, natural hyperphosphorylated pentamer (from UniProt P05221 1-200) (natural protein)
[1]
  Kd: 40 pM

## Phosphomimetic C-terminal tail domain of nucleoplasmin (rNP113–200-4D) (from UniProt P05221 113-200) (domain or fragment)
[2]
  stoichiometry N (C-terminal tails per crosslinked octamer): 4
[3]
  stoichiometry N (tail domain/H2A-H2B dimer): 1

## Recombinant nucleoplasmin lacking the last 50 residues (rNPΔ150–200) (from UniProt P05221 1-149) (domain or fragment)
[1]
  Kd: 270 pM

## Recombinant nucleoplasmin, full length (rNP) (from UniProt P05221 1-200) (natural protein)
[4]
  stoichiometry N: 10
